The nature of the data set: soluble fraction after stress (log2 fold change); higher = more stays soluble; pooled small domains, quantitative proteomics. The conditions noted are these: stress: pH 4. In outline:
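Pooled custom libraries of small protein domains were subjected to pH 4 and measured by high-throughput quantitative proteomics. The log2 fold change in soluble amount per domain is reported, higher values meaning more remained soluble. This is used as a measure of aggregation propensity.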

Some results are limits rather than exact numbers.

Take “HMPNSIKAPAYLHNIARIYDHVLIDVEKASSAYEKLIKKYPNHPLSINAKLYLENAFNRSDEELLNMIKEN”: the “soluble fraction (log2)” value was -0.624. For the sequence “HMPNYVEMLRLHEAGFSLRQIAKLVSSGRNTVTRTVNIAQEKELSYEEIAQWSSEELENMFKPD”, the “soluble fraction (log2)” value was -0.515. Turning to “HMPPDIKVVGVTVASDPRASFAMLSSNGKTLSYRVNDLIEGTEYHLIKVEAAAITIATAGGQSTQIAF”, the “soluble fraction (log2)” value was -0.156. For the sequence “HMPPFTYHLERAKRKTVGFIVDERGVTVRAPRWVSVSEIEKMLQTKEAWIQKKLTEFHNWQKE”, the “soluble fraction (log2)” value was 0.111.

“HMPPHGHIVELLPEQDFGRIETGDGRLVYFHRNSVLDGDFAQLAVGDAVRFAEEMGERGPQASSVHVE”: the “soluble fraction (log2)” value was -0.948. “HMPPLKYLKVKSYLEAVAVKAESAMRMPTVRELMNQFNVSLATVNRALSELENDGVIVRRQGSGIVAAG”: the “soluble fraction (log2)” value was at least 0.43.

In the case of “HMPPSGPWEQDPPSEAQLKPFNEAMKRTADIDVDLYEKAKKALNDGTITKGNIYDWINREDSPWVLQDGS”, the “soluble fraction (log2)” value is -0.468. Consider “HMPPSQRVNRILSLAGITSRRKADEYILEGRVTVNGEVLKEPGAKAVWGTDDIRVDGKPIPALS”, for which the “soluble fraction (log2)” value was found to be 0.275.

“HMPPSVAETLKRLRRHKSLSLEELAQMSGVSRSMLSQIERDATNPTVATLWRITAALGVSIDEVLGV”: the “soluble fraction (log2)” value is -0.893. As for “HMPPTEQVYRSHVPPQYDGFPIEKYFTTRFSYQDVEEWSRQILAGKIEVNGKTALIGQILSASDLTVTRA”, the “soluble fraction (log2)” value was -0.811. Regarding “HMPQETPIPKSEIQSYDEIWLEPISTDNILRNELRGWYHVKDRWVENEFGNRFYLDTYASKWLAFPS”, the “soluble fraction (log2)” value is -0.752.

For the sequence “HMPQKIVIQKGVVIKKRERSDAWQIYITVKGKKPIRKSANTDNVEKAKQMALTLFAEKNYKVENNLPIQ”, the “soluble fraction (log2)” value is -0.0334. Consider “HMPQLSNEEQKIVDALEGSDGKQINLITVETNIPMARLMSVLFEMEMRGIVKSLNGARYKLN”, for which the “soluble fraction (log2)” value is -0.026. Take “HMPQTDDSEPLGKYGRMRLAYLKNQRPVLYNQMLLNGTLWPHLQDVQKTAYEWLERTMTTLLDK”: the “soluble fraction (log2)” value was -0.581.

As to “HMPRDQQENIYLLEKGKRLYEEHLGDQRQIIGHRIMIFERILESQDHAQIRRAQSEFAEFLSHYDG”, the “soluble fraction (log2)” value is 0.111. In the case of “HMPRDYYAVLEVSVSSTPVQIRQAYQRLARRYSPDVNFLDRDTEALFEEIVEAYRVLSNPTARTLYDRG” it was -3.04.

With “HMPREQQENVYLLEKAKRLYEEYLGDQRQTIGHALAQFERVLESQDPAAIRRAQKEFGEFLERYDG”, the “soluble fraction (log2)” value was -0.139. On to “HMPREVKLPPDLLDALEASPEAKAFFLQLSYTHQKEYAQWIEEAKQEATRQRRLEKTVQMLLEGRRT”, for which the “soluble fraction (log2)” value was -0.0407. For the sequence “HMPRFDINFKVGEVVTIKGGSFDGQQGEISEIDHEHGKIKVMLEVLGRLTPVEVEHTEIEKI”, the “soluble fraction (log2)” value is -0.623.

Consider “HMPRKLDDQLQEQIRYLKSNYPRMSAAGIFRQLQDNGSIKHGDVSESTINRYVNLLSIEMKTTT”, for which the “soluble fraction (log2)” value worked out at 0.149. For the sequence “HMPRNMTFAIRGEYITLDALLKAVGAADSGAQAKHRIAEGEVTVDGVVETRKTRKLRGGETVVVDDLAVVL”, the “soluble fraction (log2)” value was -1.4.

For “HMPRQREVPDVSGWTEQHAKVYLEALGYRVKVIYLEVSSFDKGLVQETSPAKGSKVEEGDTIDLRVSNQE”, the “soluble fraction (log2)” value is 0.299. For the sequence “HMPRSLGADLRAIRKGRRLTLTDMAEALDRSVGWVSQVERDISTPSISDLRRMAEILDVPVSLLFG”, the “soluble fraction (log2)” value was -1.59. Regarding “HMPSARELLATNIVRLRKEKGWSQEDLALEAGLHRTFVAHVERHARNISLDNIERLANALQVNVHILLL”, the “soluble fraction (log2)” value was -1.26.

For the sequence “HMPSEDELAERLRGAIRQGDILNEGRMPPERALAEHFGVSRARLRLALGLLQEDGTIYRRHGQGTFAT”, the “soluble fraction (log2)” value was -0.0169. Take “HMPSIGKNILYYRKKRNMTIDELSKKSGVSKSMLSQVEQEKTNPTVVTVWKIARSLDVSINQLLQT”: the “soluble fraction (log2)” value worked out at 0.136. Consider “HMPSKKHARWIELEARKFMADNEDAVSDLHELRTRAANFAALKTSTLPVDQHRAIVAGFVARVNELGRRI”, for which the “soluble fraction (log2)” value is -0.19. With “HMPSLSPDETVVVDALRQQNDMQINMISVKTNLPIARLSAILFEMELKGVLKPLAGGVYHLL”, the “soluble fraction (log2)” value is -0.0639. With “HMPSPEMLKETEKRKAEEIYRSQINLFIDDYHRLKGQYPLLEDIIDNKKDSIPIEILREISISILKNYFE”, the “soluble fraction (log2)” value is -0.926. With “HMPSPEVELLEDLLSKTDEAEVEAAFHENQALVNDEFKAMLGSLIQELSKTQEADPEIIARIRFIQKLT”, the “soluble fraction (log2)” value was -1.27. As for “HMPSREDFAYDSIKEAILSGELLPNQKISLSDLANKLGISIIPVNSAVGRLVAEGLVRQDPHHSPYVV”, the “soluble fraction (log2)” value was -0.31. With “HMPSRPIQVASFSKEDNAKRAAEALAKIGVTATPQKSEKAGKAVWGVVVTGDDAMLQKIKDAGFADAYFL”, the “soluble fraction (log2)” value came out at 0.22.

With “HMPSTKDGIKEFLSSGAMKGIGRKTASAIVSRFGIDTLKIIEQEPQRLTEVSGIGKKTAQRIAEAFGKH”, the “soluble fraction (log2)” value turned out to be 0.201. In the case of “HMPSTVRVPDVAETSLSEAKKTIEESGLEVGAIHKVNNDTVKKNHVIKTSPTIGSAKKEGSAIDIYVSKG” it was 0.201; in that of “HMPSTVSVPDVAGSSLSEAKTTIKSSGLKVGTVHKVSSDTVESGYVIKTSPTAGSSKKEGSSIDIYVSKG”, -0.026.

With “HMPTANFPAMAEALKKQYGPPTGEEETSWTHRLGGVFDIKIQSWNTPQGEMVLRSRGAAMDAGML”, the “soluble fraction (log2)” value came to 0.283. For “HMPTEPTARELEVTTLLAQGLSNREIAGALFISEHTVRNHLGHVFSKLGVSSRTQAVVRAGQLGWLR”, the “soluble fraction (log2)” value is -0.798. With “HMPTKSDLLQWIKDRASKMGGAFTNSGAYALADAGVDGPRALSSEINKLLTYVNWERSVEADDVIRL”, the “soluble fraction (log2)” value was -0.296.

Turning to “HMPTLTPFDVARIENAINPRLNLETAAKLKPWIAAGYTAQETADGTGFSPDTVKKYAAIFRK”, the “soluble fraction (log2)” value was found to be 0.146.

In the case of “HMPTQTEELRRRIVADVNAGEPGAKLGSERELAERYGTSRSSLRQVLAALQEAGLIDRVIGRSGGIFISH”, the “soluble fraction (log2)” value was found to be 0.33. In the case of “HMPTSILEKILNSAAEQFTRYGFKTITMDDIARHAGVSKKTLYQHFETKLDIIVAAVTHFHTMKF” it was -1.65; in that of “HMPTYEEAKTYLKAAFEHIVAAGRDVGELVEFAFAKSGDAVAPYLRRFLSDVHEGRITIQGLTESAKLAV”, -0.463. In the case of “HMPVEQVWHIAEAGKTKGPFSRASMGRMSADGALTRDTLVWTAGQDGWKKAADVTALATLFT” it was -0.0499; in that of “HMPVFYATNRQKTTIHNLKRKKGLDDDAYRATIYSFTHGRTDSSKYMYKYEAAELIQKWLDPE”, -0.157. “HMPVGVPGVVYNTDSLNVRKGAGTNYDIVSKLKRGSVIEVLEQTAVDGTVWGRIAEGWVNMEYVSL”: the “soluble fraction (log2)” value was -0.363.

In the case of “HMPVSDLQSALRNTLSKGDATDPAFRQRVYRAAMDALERATGSESDPQRRSEQKQRLIAVIRDMEASYRR”, the “soluble fraction (log2)” value came to 0.101.

Take “HMPVTKSARQSRIGELIAREPVRSQSELAARLADDGIVVSQGTLSKDLLELGAVRVRTSSGELAYALL”: the “soluble fraction (log2)” value was -0.258. Regarding “HMPWLIAVTVDGVNLPRFLRRAGEMGLLLTGVRIRGKHLSAFAREDDVPPLRMMAENGGWRFSVGN”, the “soluble fraction (log2)” value is -0.302. For “HMPYEHQRAVGALIRRLREQQGWSQRALADWVHMDQSAVSRVETGQRSVTAEELGRFADALHVSTDALVR”, the “soluble fraction (log2)” value was found to be 0.059. For the sequence “HMPYFLKQSNTRSKGLYLQIYHSFYVPGKGSRNKSYKAIGYVSELIKNGIEDPITYAKNLVDELNNNSSTP”, the “soluble fraction (log2)” value was 0.226. On to “HMPYPSPADLARMDELIAWVKDEGRLPRDRSGQRSERSMARWLAARRREAAEGTLDPAYRDGLAQVPGWR”, for which the “soluble fraction (log2)” value is -0.304.

As to “HMPYSAAVTFLDDAKQPMVNYNYRLIAENGIEVSGITDEFGKTQPIQTDQREKVDLYIADLPN”, the “soluble fraction (log2)” value is -0.37. As to “HMQAALEVQASAGVLAPVPPDQRQALLDTLAQDPRPGYQHEAGRVYGFPFGGFEVRFTVSDGLLTVLSAYK”, the “soluble fraction (log2)” value was -1.16. For the sequence “HMQAATQVNIVGLFSNKAVVIINGGKPKTLSVGQTSEGVKLLAADSQTATLQIEGKTQQLGMGQAASVGG”, the “soluble fraction (log2)” value amounted to 0.107. Regarding “HMQAESLTVVRSAELKADRFLDAATLQTLQTGQVVESLRTESGWVQVRIAGQQGWVRAMNVKGA”, the “soluble fraction (log2)” value is -0.569. As for “HMQAITVNNEGKIFLNTIPVTLEELSSKLESLKSSTPEFPVVIRGDSGSQYQGIMDVLNVVGRLGITQIGL”, the “soluble fraction (log2)” value is -1.08.

With “HMQAKDVEVPDYVGKSFVSIKENNPNDFKFEVKSEYDESKEMGVILDQEPKGGSMKVKSGSTITVTV”, the “soluble fraction (log2)” value is 0.0655. As to “HMQASPADLLSDRELEVFQLTGEWKTTRQIAQELHLSVKTIEYYREQIKRKLNLKSAAELTQHATAWVQRG”, the “soluble fraction (log2)” value was at least 0.43. “HMQDAVASEKIQLMSEALHARDTGDLLLAKEKVEKLIALAPNDKNIQALLLTINQSIEDKGL”: the “soluble fraction (log2)” value is -0.0958. With “HMQDIDIVDLKRISELIYQKYNYDFRNYAMSSFKRRVQRIIELKKLTVDGLIKRLNDTPSFINEFLDELTV”, the “soluble fraction (log2)” value was -0.2. For “HMQDNLKKYMDKLSQRDAELIVYKYLWNMSEKEISEMFHIKQEQVHVYVGRAKKRLFKIIKKEME”, the “soluble fraction (log2)” value turned out to be 0.111.

“HMQDRDKNIEEGRQLVLHEMDRLDLVDEPLHDVARQLNMKAVEDMFAAVGAGDLRLGQIIHQLLKQADTN”: the “soluble fraction (log2)” value was -1.11. In the case of “HMQDSIYYAQYRINIRNMPSSEGMVISRASVGEALEVLDWQEQWSKVRKQSGVEGYVASRLLTK”, the “soluble fraction (log2)” value was -0.64. With “HMQDTIDLVIQVNGKLRGQMNVPKDTDRATIEQLAINLENVQKIVAGNAIKKIIIVPGRLINIVVSKNL” the figure was -0.209; with “HMQDTYQVKLLTNLNIRKSPNGTIVQKGGAKKGIIYTIVETSGTWGRLKSNAGWISVSDKYVTK”, 0.102; with “HMQDVKRYLVNSNQLNVRTGPGKEFEISESLNKGDAVTLLHKESNGWWEVITSTGQGYVYSSMLTKDPW”, 0.0322. For “HMQDVVERIKKYKQLFSITSEELSKRSGIPLGTLNKILSSSTKSIKTETLAAIAKGLDVSVSDLVGREK”, the “soluble fraction (log2)” value was -0.0189.

With “HMQEAGKWLKKLRTERKITLEQLSKKTGLSVGFLSQFERGLTSIAIDTLEKIAAVFNVTIDYFISP”, the “soluble fraction (log2)” value came to 0.22. For the sequence “HMQEEFVAPDVKDGAIVLHKAFGEGTVTKIDKAQKHIRVTFGVGEKTFIFPDAFKQGFLRMKG”, the “soluble fraction (log2)” value was found to be 0.222.
